From paper PMC11349869

B1: BCT1 CmpCD fusion (GN128) (Synechococcus elongatus PCC 7942 = FACHB-805) (protein)
chain 1: CGNPPSSSGGGTSSTTQPTAAGASDLEVKTIKLGYIPIFEAAPLIIGREKGFFAKYGLDVEVSKQASWAAARDNVILGSAGGGIDGGQWQMPMPALLTEGAISNGQKVPMYVLACLSTQGNGIAVSNQLKAQNLGLKLAPNRDFILNYPQTSGRKFKASYTFPNANQDFWIRYWFAAGGIDPDKDIELLTVPSAETLQNMRNGTIDCFSTGDPWPSRIAKDDIGYQAALTGQMWPYHPEEFLALRADWVDKHPKATLALLMGLMEAQQWCDQKANRAEMAKILSGRNFFNVPVSILQPILEGQIKVGADGKDLNNFDAGPLFWKSPRGSVSYPYKGLTLWFLVESIRWGFNKQVLPDIAAAQKLNDRVTREDLWQEAAKKLGVPAADIPTGSTRGTETFFDGITYNPDSPQAYLQSLKIKRA
chain 2: MVTARETRRNGSRPSGLKKWRQKLDGILLPLAGILGFLIIWQIFSSSGATRLPGPLSLFTEERTRELLLYPFLDRGGLDKGLFWQTIASLTRVAQGFSIAAIIGISVGILVGLNRQLNAMLDPLFQFLRMIAPLAWVPIALVAFQQNQPAAIFVIFITAVWPILINTAEGVRQIPQDYNNVARVLRMSKSKYLMKVVLPAALPYIFTGLRIAIGLSWLAIIAAEIVMSGIVGIGFFIWDAYQQNYVSDIILAVIYIGAVGLLLDRFVAWLQRWILRNM
B2: BCT1 CmpCD fusion with tags (GM319) (Synechococcus elongatus PCC 7942 = FACHB-805) (protein)
chain 1: B1 chain 1
chain 2: B1 chain 2

Substrate: O=C(O)O
Assay: cells, lysate or membranes
Settings: pH 7.5, 20 mM bis-tris propane-H2SO4, 0.5 mM glucose, 1 µM CaCl2, induced with 100 µM IPTG, labelled compound

Protein	Km [µM]
B1	120 ± 20
B2	170 ± 30
